The test system of data set [1] is Saccharomyces cerevisiae. As to the kind of experiment: protein stability index of tFT-peptide fusion (C-terminal peptide) (PSI (0-1 scale)); higher = more stable (slower turnover). The settings on record: genetic background: wild type; temperature: 30 C.
Data set [2] deals with Saccharomyces cerevisiae. The description is as above. As to the method:
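MPS profiling in S. cerevisiae of the tFT-X12 degron library: putative degron peptides plus stable controls, 12 aa, fused to the C-terminus of a sfGFP-mCherry timer. Cells are FACS-sorted into 8 mCherry/sfGFP bins and deep-sequenced. PSI runs from 0 (unstable) to 1 (stable). Backgrounds are wild type, das1Δ and doa10Δ at 30 °C, and wild type, das1Δ, cdc34-1 and cdc53-1 at 37 °C; 2-3 technical replicates each.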

The mark [3] stands for this setting: genetic background: cdc34-1, temperature: 37 C.
[4] abbreviates: genetic background: cdc53-1, temperature: 37 C.
[5] abbreviates: genetic background: das1 deletion, temperature: 30 C.
Setting [6] is: genetic background: das1 deletion, temperature: 37 C.
Setting [7] is: genetic background: doa10 deletion, temperature: 30 C.
Setting [8] is: genetic background: wild type, temperature: 30 C.
The mark [9] stands for this setting: genetic background: wild type, temperature: 37 C.

± gives the standard deviation of the averaged measurements.
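Further: PSI is a weighted mean of sequencing reads over stability bins, variants kept only with over 10 reads, mCherry proximal and sfGFP distal, peptide attached via GGGS linker.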

On to AALFNYVVCFCA, for which the protein stability index in the data set on Saccharomyces cerevisiae [1] is 0.358 ± 0.0079; in the data set with Saccharomyces cerevisiae [2] (setting [3]) it was 0.474 ± 0.059; in the data set with Saccharomyces cerevisiae [2] (setting [4]), 0.537 ± 0.035; in the data set on Saccharomyces cerevisiae [2] (setting [5]), 0.377 ± 0.025; in the data set on Saccharomyces cerevisiae [2] (setting [6]) it was 0.512 ± 0.013; in the data set on Saccharomyces cerevisiae [2] (setting [7]) it was 0.301 ± 0.0065. In addition, the protein stability index with Saccharomyces cerevisiae [2] (setting [8]) worked out at 0.323 ± 0.015; in the data set with Saccharomyces cerevisiae [2] (setting [9]) it was 0.436 ± 0.025.
For the sequence AASRVIYLLNLF, the protein stability index with Saccharomyces cerevisiae [1] turned out to be 0.3446 ± 0.0022; in the data set on Saccharomyces cerevisiae [2] (setting [3]), 0.653 ± 0.034; with Saccharomyces cerevisiae [2] (setting [4]) it was 0.753 ± 0.008; in the data set with Saccharomyces cerevisiae [2] (setting [5]), 0.6272 ± 0.0031; with Saccharomyces cerevisiae [2] (setting [6]), 0.736 ± 0.027; in the data set with Saccharomyces cerevisiae [2] (setting [7]), 0.197 ± 0.0028. Also, the protein stability index in the data set on Saccharomyces cerevisiae [2] (setting [8]) was 0.232 ± 0.018; with Saccharomyces cerevisiae [2] (setting [9]), 0.473 ± 0.027.
AFRFHTYFLLLC: the protein stability index in the data set on Saccharomyces cerevisiae [1] is 0.0812 ± 0.019; in the data set with Saccharomyces cerevisiae [2] (setting [3]), 0.0472 ± 0.006; in the data set with Saccharomyces cerevisiae [2] (setting [4]) it was 0.0404 ± 0.0043; in the data set on Saccharomyces cerevisiae [2] (setting [5]) it was 0.153 ± 0.04; with Saccharomyces cerevisiae [2] (setting [6]) it was 0.184 ± 0.0066; in the data set with Saccharomyces cerevisiae [2] (setting [7]), 0.0686 ± 0.021. In addition, the protein stability index turned out to be 0.0553 ± 0.012 in the data set on Saccharomyces cerevisiae [2] (setting [8]) and 0.0696 ± 0.038 in the data set on Saccharomyces cerevisiae [2] (setting [9]).
Take AGLLVLISWRLF: the protein stability index was 0.217 ± 0.036 in the data set with Saccharomyces cerevisiae [1]; 0.0795 ± 0.014 in the data set on Saccharomyces cerevisiae [2] (setting [3]); 0.213 ± 0.036 in the data set on Saccharomyces cerevisiae [2] (setting [4]); 0.171 ± 0.029 in the data set with Saccharomyces cerevisiae [2] (setting [5]); 0.337 ± 0.0065 in the data set with Saccharomyces cerevisiae [2] (setting [6]); 0.124 ± 0.013 with Saccharomyces cerevisiae [2] (setting [7]). The results for the protein stability index with Saccharomyces cerevisiae [2] (setting [8]) and in the data set with Saccharomyces cerevisiae [2] (setting [9]) were 0.141 ± 0.019 and 0.223 ± 0.022, respectively.
Regarding AKVFGLILVLLT, the protein stability index was 0.334 ± 0.022 in the data set with Saccharomyces cerevisiae [1]; 0.211 ± 0.026 in the data set with Saccharomyces cerevisiae [2] (setting [3]); 0.349 ± 0.027 in the data set on Saccharomyces cerevisiae [2] (setting [4]); 0.227 ± 0.023 with Saccharomyces cerevisiae [2] (setting [5]); 0.407 ± 0.025 with Saccharomyces cerevisiae [2] (setting [6]); 0.201 ± 0.017 with Saccharomyces cerevisiae [2] (setting [7]). In addition, the figures for the protein stability index in the data set on Saccharomyces cerevisiae [2] (setting [8]) and in the data set with Saccharomyces cerevisiae [2] (setting [9]) were 0.205 ± 0.024 and 0.3711 ± 0.0013, respectively.
For ALEIIRLSHRLC, the protein stability index in the data set on Saccharomyces cerevisiae [1] was 0.127 ± 0.011; with Saccharomyces cerevisiae [2] (setting [3]) it was 0.498 ± 0.048; with Saccharomyces cerevisiae [2] (setting [4]), 0.689 ± 0.022; in the data set on Saccharomyces cerevisiae [2] (setting [5]), 0.618 ± 0.008; in the data set on Saccharomyces cerevisiae [2] (setting [6]) it was 0.731 ± 0.009; with Saccharomyces cerevisiae [2] (setting [7]), 0.0821 ± 0.0079. In addition, the values for the protein stability index in the data set with Saccharomyces cerevisiae [2] (setting [8]) and in the data set with Saccharomyces cerevisiae [2] (setting [9]) were 0.0791 ± 0.016 and 0.113 ± 0.0018, respectively.
On to APEWGGGDEWWG, for which the protein stability index stood at 0.767 ± 0.012 in the data set on Saccharomyces cerevisiae [1]; 0.75 ± 0.04 with Saccharomyces cerevisiae [2] (setting [3]); 0.802 ± 0.015 with Saccharomyces cerevisiae [2] (setting [4]); 0.691 ± 0.014 in the data set on Saccharomyces cerevisiae [2] (setting [5]); 0.804 ± 0.019 with Saccharomyces cerevisiae [2] (setting [6]); 0.697 ± 0.015 with Saccharomyces cerevisiae [2] (setting [7]). Moreover, the protein stability index in the data set on Saccharomyces cerevisiae [2] (setting [8]) came out at 0.7 ± 0.0091; with Saccharomyces cerevisiae [2] (setting [9]), 0.7984 ± 0.0027.
On to APPFPSLSSFAP, for which the protein stability index amounted to 0.717 ± 0.018 in the data set with Saccharomyces cerevisiae [1]; 0.679 ± 0.039 in the data set with Saccharomyces cerevisiae [2] (setting [3]); 0.744 ± 0.038 in the data set on Saccharomyces cerevisiae [2] (setting [4]); 0.7 ± 0.016 in the data set on Saccharomyces cerevisiae [2] (setting [5]); 0.737 ± 0.03 with Saccharomyces cerevisiae [2] (setting [6]); 0.693 ± 0.032 in the data set on Saccharomyces cerevisiae [2] (setting [7]). Also, the values for the protein stability index with Saccharomyces cerevisiae [2] (setting [8]) and in the data set on Saccharomyces cerevisiae [2] (setting [9]) were 0.706 ± 0.04 and 0.718 ± 0.026, respectively.
Regarding APPPVAPAPGSA, the protein stability index in the data set with Saccharomyces cerevisiae [1] was found to be 0.709 ± 0.012; with Saccharomyces cerevisiae [2] (setting [3]), 0.65 ± 0.026; in the data set with Saccharomyces cerevisiae [2] (setting [4]), 0.701 ± 0.015; with Saccharomyces cerevisiae [2] (setting [5]) it was 0.653 ± 0.035; with Saccharomyces cerevisiae [2] (setting [6]) it was 0.7043 ± 0.0061; in the data set with Saccharomyces cerevisiae [2] (setting [7]) it was 0.647 ± 0.041. Also, the figures for the protein stability index in the data set with Saccharomyces cerevisiae [2] (setting [8]) and in the data set on Saccharomyces cerevisiae [2] (setting [9]) were 0.675 ± 0.053 and 0.672 ± 0.051, respectively.
As for APPRLPLLSCSQ, the protein stability index in the data set with Saccharomyces cerevisiae [2] (setting [3]) was found to be 0.652 ± 0.021; with Saccharomyces cerevisiae [2] (setting [4]) it was 0.712 ± 0.0095; in the data set on Saccharomyces cerevisiae [2] (setting [5]) it was 0.661 ± 0.05; with Saccharomyces cerevisiae [2] (setting [6]) it was 0.6939 ± 0.00016; with Saccharomyces cerevisiae [2] (setting [7]), 0.684 ± 0.045; in the data set on Saccharomyces cerevisiae [2] (setting [8]), 0.642 ± 0.044. The sequence also registered a protein stability index with Saccharomyces cerevisiae [2] (setting [9]) of 0.699 ± 0.014.
With APPSRRLTLRLA, the protein stability index was determined as 0.577 ± 0.039 in the data set with Saccharomyces cerevisiae [2] (setting [3]); 0.696 ± 0.019 with Saccharomyces cerevisiae [2] (setting [4]); 0.6614 ± 0.0066 in the data set on Saccharomyces cerevisiae [2] (setting [5]); 0.709 ± 0.017 in the data set on Saccharomyces cerevisiae [2] (setting [6]); 0.142 ± 0.003 in the data set on Saccharomyces cerevisiae [2] (setting [7]); 0.145 ± 0.0058 in the data set on Saccharomyces cerevisiae [2] (setting [8]). This sequence also returned a protein stability index with Saccharomyces cerevisiae [2] (setting [9]) of 0.32 ± 0.044.
For the sequence APRPSYSLLALL, the protein stability index in the data set with Saccharomyces cerevisiae [1] stood at 0.443 ± 0.025; with Saccharomyces cerevisiae [2] (setting [3]) it was 0.733 ± 0.034; in the data set with Saccharomyces cerevisiae [2] (setting [4]), 0.858 ± 0.13; with Saccharomyces cerevisiae [2] (setting [5]) it was 0.711 ± 0.04; with Saccharomyces cerevisiae [2] (setting [6]), 0.783 ± 0.026; with Saccharomyces cerevisiae [2] (setting [7]), 0.375 ± 0.01. Moreover, the protein stability index in the data set with Saccharomyces cerevisiae [2] (setting [8]) worked out at 0.41 ± 0.0052; with Saccharomyces cerevisiae [2] (setting [9]) it was 0.616 ± 0.043.
ASVSVWCVSVVV: the protein stability index in the data set on Saccharomyces cerevisiae [1] worked out at 0.15 ± 0.026; in the data set on Saccharomyces cerevisiae [2] (setting [3]), 0.124 ± 0.017; in the data set on Saccharomyces cerevisiae [2] (setting [4]) it was 0.166 ± 0.0023; in the data set on Saccharomyces cerevisiae [2] (setting [5]), 0.103 ± 0.02; in the data set on Saccharomyces cerevisiae [2] (setting [6]), 0.1641 ± 0.00088; with Saccharomyces cerevisiae [2] (setting [7]), 0.087 ± 0.024. Further, the protein stability index amounted to 0.109 ± 0.017 with Saccharomyces cerevisiae [2] (setting [8]) and 0.148 ± 0.011 in the data set on Saccharomyces cerevisiae [2] (setting [9]).
Consider AVLSFVLVRSVV, for which the protein stability index in the data set with Saccharomyces cerevisiae [1] was found to be 0.471 ± 0.02; in the data set with Saccharomyces cerevisiae [2] (setting [3]), 0.58 ± 0.052; in the data set on Saccharomyces cerevisiae [2] (setting [4]), 0.619 ± 0.012; in the data set with Saccharomyces cerevisiae [2] (setting [5]), 0.417 ± 0.026; in the data set on Saccharomyces cerevisiae [2] (setting [6]), 0.604 ± 0.017; in the data set with Saccharomyces cerevisiae [2] (setting [7]) it was 0.399 ± 0.031. Besides, the protein stability index in the data set on Saccharomyces cerevisiae [2] (setting [8]) is 0.417 ± 0.021; in the data set on Saccharomyces cerevisiae [2] (setting [9]), 0.574 ± 0.0062.
Regarding AWVLISNRRRIM, the protein stability index in the data set on Saccharomyces cerevisiae [1] was 0.262 ± 0.065; in the data set with Saccharomyces cerevisiae [2] (setting [3]), 0.62 ± 0.071; with Saccharomyces cerevisiae [2] (setting [4]) it was 0.747 ± 0.011; with Saccharomyces cerevisiae [2] (setting [5]), 0.648 ± 0.033; with Saccharomyces cerevisiae [2] (setting [6]), 0.745 ± 0.025; with Saccharomyces cerevisiae [2] (setting [7]), 0.187 ± 0.0092. Besides, the protein stability index with Saccharomyces cerevisiae [2] (setting [8]) is 0.216 ± 0.029; in the data set with Saccharomyces cerevisiae [2] (setting [9]) it was 0.502 ± 0.095.

The record behind these values is the supplement of paper PMC10724198.
